Assay results: US20050106100

How the values were obtained:
[1] = biological target: T1, Ac-Csa-PLG˜Hphe-YL-Ambh-Hynic (not fully specified)
T1 chain: XPLGXYL

[2] = biological target: T2, Ac-NGlu-PLG˜Hphe-YL-Ambh-Hynic (not fully specified)
T2 chain: XPLGXYL

Ac-NGlu-POG˜Hphe-L-Hynic = biological target: T3, Ac-NGlu-POG˜Hphe-L-Hynic (not fully specified)
T3 chain: XPXGXL

[3] = biological target: T4, Ac-PLG˜Hphe-OL-Ambh-Hynic
T4 chain: PLGXXL

[4] = biological target: T5, Ac-PLG˜Hphe-YL-Ahxh-Hynic (not fully specified)
T5 chain: PLGXYL

Ac-PLG˜Hphe-YL-Hynic = biological target: T6, Ac-PLG˜Hphe-YL-Hynic
T6 chain: PLGXYL

Ac-POG˜Hphe-L-Ambh-Hynic = biological target: T7, Ac-POG˜Hphe-L-Ambh-Hynic
T7 chain: PXGXL

Ac-POG˜Hphe-L-Hynic = biological target: T8, Ac-POG˜Hphe-L-Hynic
T8 chain: PXGXL

B1: mouse MMP9 (protein)
chain: FQTFKGLKWDHHNITYWIQNYSEDLPRDMIDDAFARAFAVWGEVAPLTFTRVYGPEADIVIQFGVAEHGDGYPFDGKDGLLAHAFPPGAGVQGDAHFDDDELWSLGKGVVIPTYYGNSNGAPCHFPFTFEGRSYSACTTDGRNDGTPWCSTTADYDKDGKFGFCPSERLYTEHGNGEGKPCVFPFIFEGRSYSACTTKGRSDGYRWCATTANYDQDKLYGFCPTRVDATVVGGNSAGELCVFPFVFLGKQYSSCTSDGRRDGRLWCATTSNFDTDKKWGFCPDQGYSLFLVAAHEFGHALGLDHSSVPEALMYPLYSYLEGFPLNKDDIDGIQYLYGRGSKPDPRPPATTTTEPQPTAPPTMCPTIPPTAYPTVGPTVGPTGAPSPGPTSSPSPGPTGAPSPGPTAPPTAGSSEASTESLSPADNPCNVDVFDAIAEIQGALHFFKDGWYWKFLNHRGSPLQGPFLTARTWPALPATLDSAFEDPQTKRVFFFSGRQMWVYTGKTVLGPRSLDKLGLGPEVTHVSGLLPRRLGKALLFSKGRVWRFDLKSQKVDPQSVIRVDKEFSGVPWNSHDIFQYQDKAYFCHGKFFWRVSFQNEVNKVDHEVNQVDDVGYVTYDLLQCP
- Kcat/Km [1]: 31000 M⁻¹ s⁻¹
- Kcat/Km [2]: > 100000 M⁻¹ s⁻¹
- Kcat/Km (Ac-NGlu-POG˜Hphe-L-Hynic): 571 M⁻¹ s⁻¹
- Kcat/Km [3]: 48000 M⁻¹ s⁻¹
- Kcat/Km [4]: > 100000 M⁻¹ s⁻¹
- Kcat/Km (Ac-PLG˜Hphe-YL-Hynic): > 100000 M⁻¹ s⁻¹
- Kcat/Km (Ac-POG˜Hphe-L-Ambh-Hynic): 14400 M⁻¹ s⁻¹
- Kcat/Km (Ac-POG˜Hphe-L-Hynic): 897 M⁻¹ s⁻¹
